Reference: patent US20260275312, “CRISPR NUCLEASE POLYPEPTIDES AND GENE EDITING SYSTEMS COMPRISING SUCH” (ARBOR BIOTECHNOLOGIES, INC., published 2026)

T1: Nuclease H (synthetic construct)
T1 chain: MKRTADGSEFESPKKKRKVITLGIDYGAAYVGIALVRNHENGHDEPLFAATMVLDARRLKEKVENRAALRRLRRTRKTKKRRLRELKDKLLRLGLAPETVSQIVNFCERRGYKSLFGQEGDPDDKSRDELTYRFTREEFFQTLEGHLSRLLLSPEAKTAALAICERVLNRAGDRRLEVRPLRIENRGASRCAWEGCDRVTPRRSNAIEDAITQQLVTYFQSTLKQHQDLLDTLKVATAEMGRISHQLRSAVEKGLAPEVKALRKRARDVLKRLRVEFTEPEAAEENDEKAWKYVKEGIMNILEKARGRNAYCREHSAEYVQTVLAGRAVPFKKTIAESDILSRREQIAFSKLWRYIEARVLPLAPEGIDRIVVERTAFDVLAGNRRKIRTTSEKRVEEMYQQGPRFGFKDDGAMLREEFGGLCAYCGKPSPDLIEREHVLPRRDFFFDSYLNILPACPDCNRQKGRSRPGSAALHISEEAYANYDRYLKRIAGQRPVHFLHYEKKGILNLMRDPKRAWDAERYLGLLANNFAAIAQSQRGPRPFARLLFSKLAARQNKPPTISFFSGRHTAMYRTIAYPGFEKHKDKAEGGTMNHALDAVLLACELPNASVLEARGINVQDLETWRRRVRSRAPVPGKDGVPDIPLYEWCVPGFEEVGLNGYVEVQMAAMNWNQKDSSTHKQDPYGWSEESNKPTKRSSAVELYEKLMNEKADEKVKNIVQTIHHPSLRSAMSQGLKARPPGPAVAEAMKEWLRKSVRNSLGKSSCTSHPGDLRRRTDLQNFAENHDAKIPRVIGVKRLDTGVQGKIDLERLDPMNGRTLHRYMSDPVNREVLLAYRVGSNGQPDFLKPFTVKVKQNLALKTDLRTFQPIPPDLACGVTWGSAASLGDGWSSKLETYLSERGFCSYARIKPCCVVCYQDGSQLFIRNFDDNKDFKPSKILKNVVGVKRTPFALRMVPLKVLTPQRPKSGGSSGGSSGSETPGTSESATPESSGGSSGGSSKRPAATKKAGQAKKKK

T2: Nuclease S (synthetic construct)
T2 chain: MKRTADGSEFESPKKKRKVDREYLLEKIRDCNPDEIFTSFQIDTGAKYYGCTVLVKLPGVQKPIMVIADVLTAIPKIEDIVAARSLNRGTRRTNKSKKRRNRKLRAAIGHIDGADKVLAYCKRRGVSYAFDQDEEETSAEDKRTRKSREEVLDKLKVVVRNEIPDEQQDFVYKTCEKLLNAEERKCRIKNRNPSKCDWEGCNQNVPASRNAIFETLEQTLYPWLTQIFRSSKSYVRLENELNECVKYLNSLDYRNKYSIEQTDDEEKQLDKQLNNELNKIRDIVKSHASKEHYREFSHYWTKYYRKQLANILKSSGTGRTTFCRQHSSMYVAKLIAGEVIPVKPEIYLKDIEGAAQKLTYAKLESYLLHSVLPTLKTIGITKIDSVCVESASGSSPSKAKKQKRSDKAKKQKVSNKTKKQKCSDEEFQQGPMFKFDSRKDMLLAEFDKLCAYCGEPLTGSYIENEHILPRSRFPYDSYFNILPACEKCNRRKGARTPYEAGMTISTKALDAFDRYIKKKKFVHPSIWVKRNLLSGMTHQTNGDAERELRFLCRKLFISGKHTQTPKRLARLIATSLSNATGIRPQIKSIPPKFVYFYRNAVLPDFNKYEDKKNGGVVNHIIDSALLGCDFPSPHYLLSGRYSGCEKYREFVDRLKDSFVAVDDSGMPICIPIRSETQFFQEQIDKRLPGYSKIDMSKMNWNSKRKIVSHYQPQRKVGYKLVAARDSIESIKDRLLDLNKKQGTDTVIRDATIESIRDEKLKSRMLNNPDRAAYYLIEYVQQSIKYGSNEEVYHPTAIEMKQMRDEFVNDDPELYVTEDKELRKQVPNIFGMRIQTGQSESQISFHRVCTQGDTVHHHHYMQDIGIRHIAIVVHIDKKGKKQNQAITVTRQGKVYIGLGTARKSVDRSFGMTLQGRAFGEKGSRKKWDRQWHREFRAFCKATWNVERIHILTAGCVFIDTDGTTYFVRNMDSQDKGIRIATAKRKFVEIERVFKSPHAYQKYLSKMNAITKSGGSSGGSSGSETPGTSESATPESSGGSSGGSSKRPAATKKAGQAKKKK


Assays:
Nuclease H = biological target: T1, Nuclease H; assay: cell_activity; HEK293T; PAM AAC 3'; Table 16 SEQ IDs shifted, guide taken from Table 15; conditions: tags: N-term SV40 NLS, XTEN linker + C-term nucleoplasmin NLS
Nuclease S = biological target: T2, Nuclease S; assay: cell_activity; HEK293T; PAM AACC 3'; very low; conditions: tags: N-term SV40 NLS, XTEN linker + C-term nucleoplasmin NLS

Binder	activity (Nuclease H) [indel ratio]	activity (Nuclease S) [indel ratio]
H AAVS1-T5 RNA guide ; AAVS1-T5 target (H) (ssRNA ; dsDNA) RNA: GGCUAUAAUCCAUGCUGACCGUUUCAAUCAACCUGAUCUCUCUGCUUGCGCUGCAGGCUUCAUAAGAUCAGUAGGUUGAAAAGAGCAUCCGUCCGACAUGCACUCCGGGAUGGGGCAGUCCCGGCUCUUGCGGUUCCCGAUGCAGUUAUGUGUCCGCGGAACACGGUGUCGGACACGUCGCAAGACAGGAUGUGAGCCCAUUAUCCACAUUAGGAUCAAUGUACGCAUGAGCAGUCCGCAAUGCCGGGGACGCU DNA 1: GGCTATAATCCATGCTGACC DNA 2: GGTCAGCATGGATTATAGCC	0.0105	–
S AAVS1-T7 RNA guide ; AAVS1-T7 target (S) (ssRNA ; dsDNA) RNA: GGCUAUAAUCCAUGCUGACCGUUGUAUUCGGAUGGGAGUAAAAGGUUGAGUACACCUGGAAACAAAACGACAUAAAGGUGUUCUCCCAUCUGUGUACAAAGAGCAGAUAUAUGAGUUGAUAAGUAAUAUGUUGCACGUAUGGACUUUGACAGUCUGUACCUCUGCGUGAAAGACAUAUUGCGUUAUUCAUAUAUCUGUGAGUCUGUUCUAAAUUUAAAGGUUUAGGGAA DNA 1: GGCTATAATCCATGCTGACC DNA 2: GGTCAGCATGGATTATAGCC	–	0.0048
